In the supplement of paper PMC10065799, “High-throughput profiling of sequence recognition by tyrosine kinases and SH2 domains using bacterial peptide display” (eLife, 2023):

target: SHP2-C SH2; experiment: SH2 binding enrichment of the phosphorylated peptide, bacterial display (enrichment ratio); higher = better substrate or ligand; peptides without Tyr show the background
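For SH2 binding enrichment of the phosphorylated peptide, bacterial display in this document: peptide library displayed on the E. coli surface as eCPX fusions, selected cells deep-sequenced, score is each peptide's frequency after selection divided by its frequency in the input.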
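For phosphorylation enrichment, bacterial display in this document: 11-residue human phosphosite peptides and single-mutation variants displayed on the E. coli surface, counted by deep sequencing, each peptide's frequency after selection divided by its frequency in the unselected input library; frequency after pTyr selection over input frequency; kinase dosed for 20-30% of maximal phosphorylation in three min.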

| Sequence | SH2 binding enrichment |
| --- | --- |
| KNSFKYFMSDD [ATRX_Y203_C200S_YF] | 0.587 |
| GIPIQYPIISE [NOG_Y222_W217G] | 0.457 |
| TYVKSYTIHYS [F5_Y2153_M2148T] | 0.783 |
| SKNSKYNAEST [PSEN1_Y315] | 0.595 |
| DYYDLYGGEKF [PTPN11_Y66] | 0.68 |
| MSGDVYSTDYY [NTRK2_Y702_R699G] | 0.874 |
| TKDTFHKQPMF [GBA_Y451_Y451H] | 0.884 |
| FADIAYNFRHG [PAH_Y166_YF] | 0.78 |
| PLYRKYWPNHI [GREB1L_Y1560] | 1.24 |
| ENRKFYMDLKE [PURA_Y156_YF] | 0.558 |
| LNPLIYTLKNA [OR4C46_Y285] | 0.891 |
| HRGYLYLAIEY [TEK_Y899] | 1.11 |
| CSTIHYNFMCN [TP53_Y234_T230S_YF] | 1.91 |
| SWSTSYSGYRC [NKAPL_Y91_Y96C] | 0.798 |
| RGDTVYTVNCM [KBTBD13_Y404_R408C] | 0.793 |
| YPLELYERVRM [PRKCG_Y312] | 0.83 |
| SVEELYAIPPD [PEAK1_Y797] | 0.733 |
| ATHRSYDSDNP [MMUT_Y146_G145S] | 0.509 |
| SSWPDYVRPLP [HSPB1_Y54_G53D] | 0.71 |
| NTGDFYDLFGG [PTPN11_Y63_YF] | 0.628 |
| QMQLKYSQSDL [SMC1A_Y714_R711Q] | 0.534 |
| DENCFYTRAAS [RPS19_Y54_W52C] | 3.23 |
| LHSEAYLKFNE [PBRM1_Y1610_I1614N_YF] | 1 |
| ARRHPYFYAPE [ALB_Y172] | 0.47 |
| TEFSQYMRRKN [MAX_Y73_I71S_YF] | 0.279 |
| LDFPEYNGVDR [CASQ1_Y43_D44N] | 0.646 |
| ERKQTYGSCRK [LACTB_Y473] | 1.27 |
| EDNPEYMRLRN [ADD2_Y31_D28N] | 0.73 |
| GNLQENLTRHV [TGFBR2_Y336_Y336N] | 0.601 |

target: Grb2 SH2 (UniProt P62993); experiment: as above
Sequence (P62993 whole entry, looked up): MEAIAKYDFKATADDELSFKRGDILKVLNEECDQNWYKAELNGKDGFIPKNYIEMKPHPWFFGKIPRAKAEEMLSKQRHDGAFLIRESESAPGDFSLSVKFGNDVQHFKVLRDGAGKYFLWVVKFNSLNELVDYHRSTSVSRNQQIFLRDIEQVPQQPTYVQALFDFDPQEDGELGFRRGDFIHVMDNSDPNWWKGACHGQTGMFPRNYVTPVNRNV

| Sequence | SH2 binding enrichment |
| --- | --- |
| KNSFKYFMSDD [ATRX_Y203_C200S_YF] | 0.942 |
| GIPIQYPIISE [NOG_Y222_W217G] | 0.847 |
| TYVKSYTIHYS [F5_Y2153_M2148T] | 0.791 |
| SKNSKYNAEST [PSEN1_Y315] | 0.759 |
| DYYDLYGGEKF [PTPN11_Y66] | 1.21 |
| MSGDVYSTDYY [NTRK2_Y702_R699G] | 0.778 |
| TKDTFHKQPMF [GBA_Y451_Y451H] | 0.884 |
| FADIAYNFRHG [PAH_Y166_YF] | 0.878 |
| PLYRKYWPNHI [GREB1L_Y1560] | 1.09 |
| ENRKFYMDLKE [PURA_Y156_YF] | 0.841 |
| LNPLIYTLKNA [OR4C46_Y285] | 0.642 |
| HRGYLYLAIEY [TEK_Y899] | 1.24 |
| CSTIHYNFMCN [TP53_Y234_T230S_YF] | 1.4 |
| SWSTSYSGYRC [NKAPL_Y91_Y96C] | 0.914 |
| RGDTVYTVNCM [KBTBD13_Y404_R408C] | 0.752 |
| YPLELYERVRM [PRKCG_Y312] | 1.02 |
| SVEELYAIPPD [PEAK1_Y797] | 0.746 |
| ATHRSYDSDNP [MMUT_Y146_G145S] | 1.07 |
| SSWPDYVRPLP [HSPB1_Y54_G53D] | 0.974 |
| NTGDFYDLFGG [PTPN11_Y63_YF] | 1.14 |
| QMQLKYSQSDL [SMC1A_Y714_R711Q] | 0.529 |
| DENCFYTRAAS [RPS19_Y54_W52C] | 0.868 |
| LHSEAYLKFNE [PBRM1_Y1610_I1614N_YF] | 1.34 |
| ARRHPYFYAPE [ALB_Y172] | 0.61 |
| TEFSQYMRRKN [MAX_Y73_I71S_YF] | 0.608 |
| LDFPEYNGVDR [CASQ1_Y43_D44N] | 0.541 |
| ERKQTYGSCRK [LACTB_Y473] | 1.09 |
| EDNPEYMRLRN [ADD2_Y31_D28N] | 0.85 |
| GNLQENLTRHV [TGFBR2_Y336_Y336N] | 0.698 |

target: c-Src SH2; experiment: as above

| Sequence | SH2 binding enrichment |
| --- | --- |
| KNSFKYFMSDD [ATRX_Y203_C200S_YF] | 0.556 |
| GIPIQYPIISE [NOG_Y222_W217G] | 0.498 |
| TYVKSYTIHYS [F5_Y2153_M2148T] | 0.652 |
| SKNSKYNAEST [PSEN1_Y315] | 0.489 |
| DYYDLYGGEKF [PTPN11_Y66] | 0.734 |
| MSGDVYSTDYY [NTRK2_Y702_R699G] | 0.622 |
| TKDTFHKQPMF [GBA_Y451_Y451H] | 0.547 |
| FADIAYNFRHG [PAH_Y166_YF] | 0.516 |
| PLYRKYWPNHI [GREB1L_Y1560] | 0.822 |
| ENRKFYMDLKE [PURA_Y156_YF] | 0.506 |
| LNPLIYTLKNA [OR4C46_Y285] | 0.42 |
| HRGYLYLAIEY [TEK_Y899] | 0.695 |
| CSTIHYNFMCN [TP53_Y234_T230S_YF] | 2.44 |
| SWSTSYSGYRC [NKAPL_Y91_Y96C] | 0.63 |
| RGDTVYTVNCM [KBTBD13_Y404_R408C] | 0.475 |
| YPLELYERVRM [PRKCG_Y312] | 1.11 |
| SVEELYAIPPD [PEAK1_Y797] | 0.543 |
| ATHRSYDSDNP [MMUT_Y146_G145S] | 0.651 |
| SSWPDYVRPLP [HSPB1_Y54_G53D] | 0.489 |
| NTGDFYDLFGG [PTPN11_Y63_YF] | 0.615 |
| QMQLKYSQSDL [SMC1A_Y714_R711Q] | 0.283 |
| DENCFYTRAAS [RPS19_Y54_W52C] | 0.942 |
| LHSEAYLKFNE [PBRM1_Y1610_I1614N_YF] | 0.539 |
| ARRHPYFYAPE [ALB_Y172] | 0.3 |
| TEFSQYMRRKN [MAX_Y73_I71S_YF] | 0.37 |
| LDFPEYNGVDR [CASQ1_Y43_D44N] | 0.975 |
| ERKQTYGSCRK [LACTB_Y473] | 0.971 |
| EDNPEYMRLRN [ADD2_Y31_D28N] | 0.511 |
| GNLQENLTRHV [TGFBR2_Y336_Y336N] | 0.474 |

target: Fyn (UniProt P06241); experiment: phosphorylation enrichment, bacterial display (enrichment ratio); higher = better substrate or ligand; peptides without Tyr show the background
Sequence (P06241 whole entry, looked up): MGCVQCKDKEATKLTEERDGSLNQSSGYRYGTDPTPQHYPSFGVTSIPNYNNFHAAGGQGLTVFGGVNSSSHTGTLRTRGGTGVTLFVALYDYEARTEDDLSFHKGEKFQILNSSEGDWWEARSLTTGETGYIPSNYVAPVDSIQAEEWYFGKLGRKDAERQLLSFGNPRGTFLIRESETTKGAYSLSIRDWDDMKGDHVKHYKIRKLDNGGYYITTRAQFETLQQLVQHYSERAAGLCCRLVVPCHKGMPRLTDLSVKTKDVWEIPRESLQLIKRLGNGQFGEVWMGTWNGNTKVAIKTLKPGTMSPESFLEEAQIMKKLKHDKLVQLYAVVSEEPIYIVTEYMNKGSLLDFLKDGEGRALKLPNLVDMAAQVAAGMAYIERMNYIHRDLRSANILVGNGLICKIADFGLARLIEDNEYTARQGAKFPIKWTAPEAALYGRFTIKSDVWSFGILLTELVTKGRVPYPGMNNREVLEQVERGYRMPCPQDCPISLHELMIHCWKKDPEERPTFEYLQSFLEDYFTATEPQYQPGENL

| Sequence | phosphorylation enrichment |
| --- | --- |
| KNSFKYFMSDD [ATRX_Y203_C200S_YF] | 0.392 |
| GIPIQYPIISE [NOG_Y222_W217G] | 0.541 |
| TYVKSYTIHYS [F5_Y2153_M2148T] | 0.508 |
| SKNSKYNAEST [PSEN1_Y315] | 0.363 |
| DYYDLYGGEKF [PTPN11_Y66] | 5.73 |
| MSGDVYSTDYY [NTRK2_Y702_R699G] | 4.31 |
| TKDTFHKQPMF [GBA_Y451_Y451H] | 0.333 |
| FADIAYNFRHG [PAH_Y166_YF] | 0.558 |
| PLYRKYWPNHI [GREB1L_Y1560] | 1.07 |
| ENRKFYMDLKE [PURA_Y156_YF] | 0.408 |
| LNPLIYTLKNA [OR4C46_Y285] | 2.17 |
| HRGYLYLAIEY [TEK_Y899] | 0.485 |
| CSTIHYNFMCN [TP53_Y234_T230S_YF] | 0.476 |
| SWSTSYSGYRC [NKAPL_Y91_Y96C] | 0.462 |
| RGDTVYTVNCM [KBTBD13_Y404_R408C] | 3.11 |
| YPLELYERVRM [PRKCG_Y312] | 0.518 |
| SVEELYAIPPD [PEAK1_Y797] | 2.88 |
| ATHRSYDSDNP [MMUT_Y146_G145S] | 0.47 |
| SSWPDYVRPLP [HSPB1_Y54_G53D] | 0.442 |
| NTGDFYDLFGG [PTPN11_Y63_YF] | 4.89 |
| QMQLKYSQSDL [SMC1A_Y714_R711Q] | 0.654 |
| DENCFYTRAAS [RPS19_Y54_W52C] | 0.569 |
| LHSEAYLKFNE [PBRM1_Y1610_I1614N_YF] | 1.05 |
| ARRHPYFYAPE [ALB_Y172] | 0.641 |
| TEFSQYMRRKN [MAX_Y73_I71S_YF] | 0.647 |
| LDFPEYNGVDR [CASQ1_Y43_D44N] | 1.43 |
| ERKQTYGSCRK [LACTB_Y473] | 0.339 |
| EDNPEYMRLRN [ADD2_Y31_D28N] | 0.444 |
| GNLQENLTRHV [TGFBR2_Y336_Y336N] | 0.427 |
